Assay results taken from patent US20220133733A1 (Bicycle, published 2022).
Read-outs that look alike come from different tables or passages of the source. Starred links: 1 amine or outer side, 2 acyl side, 3 side chain; linkers in the order of their positions; H or OH if unused. Positions of bridges follow the written chain, without caps; N, C: chain ends. No end group written: not given here. TBMB = c1c(C[*:1])cc(C[*:3])cc1C[*:2]

Columns and labels:
human CD38 [1] = molecular target: T1, human CD38 (human, UniProt P28907 43-300, limits assumed); experiment: fluorescence polarisation competition, tracer …-Sar6-K(Fl)
T1 construct: also called hCD38
T1 sequence (looked up): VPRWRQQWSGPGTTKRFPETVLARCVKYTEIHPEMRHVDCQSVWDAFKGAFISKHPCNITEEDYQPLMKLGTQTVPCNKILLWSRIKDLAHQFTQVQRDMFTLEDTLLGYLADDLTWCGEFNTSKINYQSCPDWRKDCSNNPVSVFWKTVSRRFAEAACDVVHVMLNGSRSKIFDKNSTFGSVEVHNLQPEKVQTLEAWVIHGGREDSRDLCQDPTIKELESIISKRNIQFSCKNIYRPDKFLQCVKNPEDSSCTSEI

human CD38 [2] = molecular target: T1, human CD38; experiment: as above; remark: listed apart in the source

B1: BT66BDC-1 (peptide)
peptide: XXXXXXXXXXXACVPCADFPIWYC
modifications: DM1 toxin conjugated to the peptide through a linker shown only in the drawing of formula (I); N-terminal beta-alanine followed by ten sarcosines (Sar10); Ci, Cii and Ciii bound to TBMB scaffold
notes: The attachment site and linker stand only in drawings; also called BDC of formula (I)
Q: B1 was tested. Which Ki (human CD38 [1]) did it give?
A: 144 nM

Q: Which Ki (human CD38 [2]) does the source give for ACFTLDGECFLLGENCA (linker 2-9-16 via TBMB (inferred)) [66-08-52-N001] here?
A: 562 nM
